The source of these data is article PMC8298490, “Structure and function of an Arabidopsis thaliana sulfate transporter” (Nature Communications, 2021).

In data set [1] the target is T1, AtSULTR4;1 ΔSTAS (Arabidopsis thaliana, UniProt Q9FY46).
T1 construct: gene SULTR4; STAS domain (residues 503-685) truncated, transmembrane domain only, C-terminal His6-tag cleaved by TEV, High Five insect cells, monomeric by SEC
T1 sequence (Q9FY46 1-502): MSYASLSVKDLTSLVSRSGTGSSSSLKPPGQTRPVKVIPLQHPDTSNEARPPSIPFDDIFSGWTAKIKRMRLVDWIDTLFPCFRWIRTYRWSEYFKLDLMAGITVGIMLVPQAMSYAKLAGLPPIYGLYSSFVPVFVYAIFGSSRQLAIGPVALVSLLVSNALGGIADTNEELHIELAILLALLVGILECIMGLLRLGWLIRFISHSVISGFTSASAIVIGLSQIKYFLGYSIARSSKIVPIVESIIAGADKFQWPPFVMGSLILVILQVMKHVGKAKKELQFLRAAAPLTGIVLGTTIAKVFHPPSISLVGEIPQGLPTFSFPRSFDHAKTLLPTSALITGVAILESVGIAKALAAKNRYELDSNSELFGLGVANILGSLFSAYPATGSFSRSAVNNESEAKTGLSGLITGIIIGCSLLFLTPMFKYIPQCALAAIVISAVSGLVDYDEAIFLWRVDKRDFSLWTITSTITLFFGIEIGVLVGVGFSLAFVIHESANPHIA
Kind of data set: […]SO4 uptake into proteoliposomes, […] min. As to conditions: 13.3 µM 35SO4, pH 7.5 inside / 5.5 outside; labelled compound. The class given is biochemical.

Data set [2] concerns the molecule itself. Kind of data set: cryo-EM structure; AtSULTR4;1 in GDN, 20 mM MES pH 6.0, 150 mM Na2SO4, 5 mM BME; refined with C2 symmetry; overall resolution 2.8 Å.
Data set [3] deals with the molecule itself. Put plainly: SEC; purified protein on SRT-3C SEC-300 column, 20 mM HEPES, 150 mM NaCl, 5 mM BME, 0.01% LMNG; elution profile compared with wild type. On the technique in general: SEC sorts molecules by how far they enter the pores of the column.

Turning to `O=S(=O)(O)O` [SO4^2−], the “35SO4 uptake into proteoliposomes, 5 min” value in data set [1] is “ΔSTAS retains a lower level of transport activity”.

B1: Arabidopsis thaliana sulfate transporter SULTR4;1 (AtSULTR4;1), wild type (natural protein, UniProt Q9FY46 24-685, looked up)
chain: SSLKPPGQTRPVKVIPLQHPDTSNEARPPSIPFDDIFSGWTAKIKRMRLVDWIDTLFPCFRWIRTYRWSEYFKLDLMAGITVGIMLVPQAMSYAKLAGLPPIYGLYSSFVPVFVYAIFGSSRQLAIGPVALVSLLVSNALGGIADTNEELHIELAILLALLVGILECIMGLLRLGWLIRFISHSVISGFTSASAIVIGLSQIKYFLGYSIARSSKIVPIVESIIAGADKFQWPPFVMGSLILVILQVMKHVGKAKKELQFLRAAAPLTGIVLGTTIAKVFHPPSISLVGEIPQGLPTFSFPRSFDHAKTLLPTSALITGVAILESVGIAKALAAKNRYELDSNSELFGLGVANILGSLFSAYPATGSFSRSAVNNESEAKTGLSGLITGIIIGCSLLFLTPMFKYIPQCALAAIVISAVSGLVDYDEAIFLWRVDKRDFSLWTITSTITLFFGIEIGVLVGVGFSLAFVIHESANPHIAVLGRLPGTTVYRNIKQYPEAYTYNGIVIVRIDSPIYFANISYIKDRLREYEVAVDKYTNRGLEVDRINFVILEMSPVTHIDSSAVEALKELYQEYKTRDIQLAISNPNKDVHLTIARSGMVELVGKEWFFVRVHDAVQVCLQYVQSSNLEDKHLSFTRRYGGSNNNSSSSNALLKEPLLSVEK
notes: A. thaliana SULTR4;1, codon-optimized gene (NCBI NM_121358.3); residues 1-69 and 645-685 are called the N- and C-termini and were not resolved; the model holds residues 70-644; Homodimer in the cryo-EM structure; also called WT; source: High Five (Trichoplusia ni) insect cells, baculovirus; purified (LMNG solubilisation, Talon cobalt resin, SEC); not shown: His6, C-terminal, cleaved
By stoichiometry N is commonly meant a count of units in the complex or per binding partner. As for B1, in data set [2], the “stoichiometry N” value was 2.

B2: AtSULTR4;1 R550E (natural protein, Arabidopsis thaliana, UniProt Q9FY46 24-685, looked up)
chain: SSLKPPGQTRPVKVIPLQHPDTSNEARPPSIPFDDIFSGWTAKIKRMRLVDWIDTLFPCFRWIRTYRWSEYFKLDLMAGITVGIMLVPQAMSYAKLAGLPPIYGLYSSFVPVFVYAIFGSSRQLAIGPVALVSLLVSNALGGIADTNEELHIELAILLALLVGILECIMGLLRLGWLIRFISHSVISGFTSASAIVIGLSQIKYFLGYSIARSSKIVPIVESIIAGADKFQWPPFVMGSLILVILQVMKHVGKAKKELQFLRAAAPLTGIVLGTTIAKVFHPPSISLVGEIPQGLPTFSFPRSFDHAKTLLPTSALITGVAILESVGIAKALAAKNRYELDSNSELFGLGVANILGSLFSAYPATGSFSRSAVNNESEAKTGLSGLITGIIIGCSLLFLTPMFKYIPQCALAAIVISAVSGLVDYDEAIFLWRVDKRDFSLWTITSTITLFFGIEIGVLVGVGFSLAFVIHESANPHIAVLGRLPGTTVYRNIKQYPEAYTYNGIVIVRIDSPIYFANISYIKDRLEEYEVAVDKYTNRGLEVDRINFVILEMSPVTHIDSSAVEALKELYQEYKTRDIQLAISNPNKDVHLTIARSGMVELVGKEWFFVRVHDAVQVCLQYVQSSNLEDKHLSFTRRYGGSNNNSSSSNALLKEPLLSVEK
notes: A. thaliana SULTR4;1 (NCBI NM_121358.3) with the charge-reversal mutation R550E on helix alpha1 of the STAS domain; Made by QuikChange on the wild-type construct; source: High Five insect cells, baculovirus; purified following the same protocol as wild type; not shown: His6, C-terminal, cleaved
As to B2, the binding result in data set [3] is “binds”.

B3: AtSULTR4;1 D547R (natural protein, Arabidopsis thaliana, UniProt Q9FY46 24-685, looked up)
chain: SSLKPPGQTRPVKVIPLQHPDTSNEARPPSIPFDDIFSGWTAKIKRMRLVDWIDTLFPCFRWIRTYRWSEYFKLDLMAGITVGIMLVPQAMSYAKLAGLPPIYGLYSSFVPVFVYAIFGSSRQLAIGPVALVSLLVSNALGGIADTNEELHIELAILLALLVGILECIMGLLRLGWLIRFISHSVISGFTSASAIVIGLSQIKYFLGYSIARSSKIVPIVESIIAGADKFQWPPFVMGSLILVILQVMKHVGKAKKELQFLRAAAPLTGIVLGTTIAKVFHPPSISLVGEIPQGLPTFSFPRSFDHAKTLLPTSALITGVAILESVGIAKALAAKNRYELDSNSELFGLGVANILGSLFSAYPATGSFSRSAVNNESEAKTGLSGLITGIIIGCSLLFLTPMFKYIPQCALAAIVISAVSGLVDYDEAIFLWRVDKRDFSLWTITSTITLFFGIEIGVLVGVGFSLAFVIHESANPHIAVLGRLPGTTVYRNIKQYPEAYTYNGIVIVRIDSPIYFANISYIKRRLREYEVAVDKYTNRGLEVDRINFVILEMSPVTHIDSSAVEALKELYQEYKTRDIQLAISNPNKDVHLTIARSGMVELVGKEWFFVRVHDAVQVCLQYVQSSNLEDKHLSFTRRYGGSNNNSSSSNALLKEPLLSVEK
notes: A. thaliana SULTR4;1 (NCBI NM_121358.3) with the charge-reversal mutation D547R on helix alpha1 of the STAS domain; Made by QuikChange on the wild-type construct; source: High Five insect cells, baculovirus; purified following the same protocol as wild type; not shown: His6, C-terminal, cleaved
B3: the binding result in data set [3] is “binds”.

B4: AtSULTR4;1 K353E (natural protein, Arabidopsis thaliana, UniProt Q9FY46 24-685, looked up)
chain: SSLKPPGQTRPVKVIPLQHPDTSNEARPPSIPFDDIFSGWTAKIKRMRLVDWIDTLFPCFRWIRTYRWSEYFKLDLMAGITVGIMLVPQAMSYAKLAGLPPIYGLYSSFVPVFVYAIFGSSRQLAIGPVALVSLLVSNALGGIADTNEELHIELAILLALLVGILECIMGLLRLGWLIRFISHSVISGFTSASAIVIGLSQIKYFLGYSIARSSKIVPIVESIIAGADKFQWPPFVMGSLILVILQVMKHVGKAKKELQFLRAAAPLTGIVLGTTIAKVFHPPSISLVGEIPQGLPTFSFPRSFDHAKTLLPTSALITGVAILESVGIAEALAAKNRYELDSNSELFGLGVANILGSLFSAYPATGSFSRSAVNNESEAKTGLSGLITGIIIGCSLLFLTPMFKYIPQCALAAIVISAVSGLVDYDEAIFLWRVDKRDFSLWTITSTITLFFGIEIGVLVGVGFSLAFVIHESANPHIAVLGRLPGTTVYRNIKQYPEAYTYNGIVIVRIDSPIYFANISYIKDRLREYEVAVDKYTNRGLEVDRINFVILEMSPVTHIDSSAVEALKELYQEYKTRDIQLAISNPNKDVHLTIARSGMVELVGKEWFFVRVHDAVQVCLQYVQSSNLEDKHLSFTRRYGGSNNNSSSSNALLKEPLLSVEK
notes: A. thaliana SULTR4;1 (NCBI NM_121358.3) with the charge-reversal mutation K353E on TM8 (core domain); Made by QuikChange on the wild-type construct; source: High Five insect cells, baculovirus; purified following the same protocol as wild type; not shown: His6, C-terminal, cleaved
On to B4, for which the binding result in data set [3] is recorded as “binds”.
